This note sets out measurements from US20170327598A1 (published 2017).

The target in one experiment is T1, STAT 5a protein (UniProt P42229 1-794, limits assumed).
T1 sequence (looked up): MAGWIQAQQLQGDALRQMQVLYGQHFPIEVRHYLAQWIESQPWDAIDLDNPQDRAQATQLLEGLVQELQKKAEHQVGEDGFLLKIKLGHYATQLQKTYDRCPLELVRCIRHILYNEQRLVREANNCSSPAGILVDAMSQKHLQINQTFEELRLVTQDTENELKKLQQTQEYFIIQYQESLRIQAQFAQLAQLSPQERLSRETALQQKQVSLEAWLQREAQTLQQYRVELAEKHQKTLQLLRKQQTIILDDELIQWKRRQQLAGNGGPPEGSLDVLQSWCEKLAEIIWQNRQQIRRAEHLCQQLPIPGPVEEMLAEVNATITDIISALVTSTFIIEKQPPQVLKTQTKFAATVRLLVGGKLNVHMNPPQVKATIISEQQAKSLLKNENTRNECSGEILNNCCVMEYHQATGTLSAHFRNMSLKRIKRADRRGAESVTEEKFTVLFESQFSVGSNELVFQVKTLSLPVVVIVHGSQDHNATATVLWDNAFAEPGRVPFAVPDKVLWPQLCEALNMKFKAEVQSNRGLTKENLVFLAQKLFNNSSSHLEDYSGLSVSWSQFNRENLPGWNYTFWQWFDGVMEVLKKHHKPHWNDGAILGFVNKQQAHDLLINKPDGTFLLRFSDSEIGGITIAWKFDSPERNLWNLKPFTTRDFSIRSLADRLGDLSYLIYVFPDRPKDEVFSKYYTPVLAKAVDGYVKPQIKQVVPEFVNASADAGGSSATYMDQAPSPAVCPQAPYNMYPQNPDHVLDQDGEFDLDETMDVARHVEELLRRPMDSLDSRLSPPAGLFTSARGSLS
The experiment in a line: sandwich ELISA, STAT protein coated at 0.5 µg/mL. In general terms: ELISA stands for enzyme-linked immunosorbent assay.

In another experiment the target is STAT 3 protein (UniProt P40763 1-770, limits assumed). The experiment in a line: sandwich ELISA, STAT protein coated at 0.5 µg/mL.

B1: anti-STAT3 VHH13 (SEQ ID NO:3) sdAb (VHH)
VHH: HVQLVESGGGSVQAGGSLRLSCAASGANGGRSCMGWFRQVPGKEREGVSGISTGGLITYYADSVKGRFTISQDNTKNTLYLQMNSLKPEDTAMYYCATSRFDCYRGSWFNRYMYNSWGQGTQVTVSS
Regarding B1, the “Mean OD450” value came to 0.107 OD450 with STAT 5a protein and 0.063 OD450 with STAT 3 protein.
